The values below come from publication doi:10.1101/2021.01.28.428652.

For assay [1], the target named is MIK2^ECD-6xHIS, extracellular leucine-rich repeat domain of MALE DISCOVERER 1-… RECEPTOR-LIKE KINASE 2 (Arabidopsis thaliana) (UniProt Q8VZG8). Briefly: SPR. A general note: SPR reads the build-up and loss of mass on a sensor chip optically.
The target is the same in assay [2]. Briefly: ITC. On the technique in general: ITC needs no label: the signal is the heat of the interaction.

UniProt Q8VZG8, sequence (Q8VZG8 44-707): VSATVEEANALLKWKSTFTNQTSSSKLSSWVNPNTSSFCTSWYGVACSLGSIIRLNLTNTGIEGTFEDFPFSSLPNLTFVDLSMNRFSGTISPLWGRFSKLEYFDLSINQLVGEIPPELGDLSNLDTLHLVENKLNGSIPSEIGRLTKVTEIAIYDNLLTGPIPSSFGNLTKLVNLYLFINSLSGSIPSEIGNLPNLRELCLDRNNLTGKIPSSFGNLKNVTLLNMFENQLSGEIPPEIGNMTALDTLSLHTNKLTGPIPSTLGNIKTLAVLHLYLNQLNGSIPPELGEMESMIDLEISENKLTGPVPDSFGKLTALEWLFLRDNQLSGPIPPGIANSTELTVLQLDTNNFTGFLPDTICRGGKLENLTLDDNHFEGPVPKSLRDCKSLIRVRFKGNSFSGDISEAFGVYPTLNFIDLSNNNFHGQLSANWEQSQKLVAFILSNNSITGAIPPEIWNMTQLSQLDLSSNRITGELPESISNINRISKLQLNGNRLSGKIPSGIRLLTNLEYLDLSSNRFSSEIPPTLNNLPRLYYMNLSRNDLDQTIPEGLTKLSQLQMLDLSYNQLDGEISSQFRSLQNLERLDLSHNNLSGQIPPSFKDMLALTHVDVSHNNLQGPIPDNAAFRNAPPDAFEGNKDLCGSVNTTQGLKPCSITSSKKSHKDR

As a reminder, the Kd is the concentration at which binding is half-saturated. Take SCOOP12^SS/AA peptide: in assay [1], the Kd worked out at 3480 µM.

In assay [2], “SCOOP12 peptide (SERINE-RICH ENDOGENOUS PEPTIDE 12)” showed a dissociation constant Kd of 3.18 µM and a stoichiometry N (ligand molecule per receptor molecule) of 1. In assay [1], this substance registered a Kd of 1.78 µM.
